In PMC8034616:
Residue numbers refer to the chain shown, from its start.

Key:
[1] = test system: T1, H-NS A2 S2A (Shewanella oneidensis MR-1), ORF:b65510ad; test: analytical ultracentrifugation
T1 sequence: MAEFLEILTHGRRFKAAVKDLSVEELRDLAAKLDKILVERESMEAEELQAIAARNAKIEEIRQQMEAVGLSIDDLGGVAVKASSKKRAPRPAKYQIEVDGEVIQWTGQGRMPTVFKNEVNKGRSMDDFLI

[2] = test system: T2, H-NS A42 S42A (Shewanella oneidensis MR-1), ORF:b65510ad; test: analytical ultracentrifugation
T2 sequence: T1 sequence with A2S, S42A

[3] = test system: T3, H-NS A71 S71A (Shewanella oneidensis MR-1), ORF:b65510ad; test: analytical ultracentrifugation
T3 sequence: T1 sequence with A2S, S71A

[4] = test system: T1, H-NS A2 S2A (Shewanella oneidensis MR-1), ORF:b65510ad; test: EMSA
[5] = test system: T2, H-NS A42 S42A (Shewanella oneidensis MR-1), ORF:b65510ad; test: EMSA
[6] = test system: T3, H-NS A71 S71A (Shewanella oneidensis MR-1), ORF:b65510ad; test: EMSA

Measured: binding

GATTTTCTAGTGACAGAAGGTTTTAGCGTTGATAATGCCAAATATGCTGAATTATTTTTGAGACCGAGTAAATTTCTTAGGGGACCAAAAAAACGCATATAATACAATGGATAATGCAATTTAGGTGAGCAAAGGGGACCGTTTTTACCCCGTTTATTCATGCTTCATAACCATCTAATCTCAGGGTTGTAGACGTTTATTCACAACTCTGAGGACGATTATGAACACAACTCTCAC (double strand) [alpA promoter (PalpA)]
binds: [1] | [2] | [3] | [4] | [5] | [6]
